Holding throughout (conditions): protein: recombinant; tags: U-[2H,15N] or ILV methyl labeled; no tag stated; chain copies: 2
Data set [1] deals with T1, p50 RHR homodimer (mouse (murine), UniProt P25799 39-363). Kind of data set: NMR (13C methyl HMQC, CPMG); 1:1; single bound conformation; NMR: 20 mM Tris pH 6.8, 150 mM NaCl, 2 mM DTT, 300 K; native gel: 20 mM Tris pH 8.0, 10% glycerol, room temperature, 20 min.
Data set [2] has as its target T1, p50 RHR homodimer. Kind of data set: NMR (13C methyl HMQC); 1:1; heterogeneous bound conformations; NMR: 20 mM Tris pH 6.8, 150 mM NaCl, 2 mM DTT, 300 K; native gel: 20 mM Tris pH 8.0, 10% glycerol, room temperature, 20 min.
The target in data set [3] is T1, p50 RHR homodimer. Kind of data set: NMR (13C methyl HMQC); 1:1; split peaks, at least two bound conformers; NMR: 20 mM Tris pH 6.8, 150 mM NaCl, 2 mM DTT, 300 K; native gel: 20 mM Tris pH 8.0, 10% glycerol, room temperature, 20 min.
The target in data set [4] is T1, p50 RHR homodimer. Kind of data set: NMR (13C methyl HMQC); 1:1; single bound conformation, shifts differ from MHC H2; NMR: 20 mM Tris pH 6.8, 150 mM NaCl, 2 mM DTT, 300 K; native gel: 20 mM Tris pH 8.0, 10% glycerol, room temperature, 20 min.
Data set [5] has as its target T1, p50 RHR homodimer. Nature of the data set: NMR (13C methyl HMQC); 1:1; two conformations; NMR: 20 mM Tris pH 6.8, 150 mM NaCl, 2 mM DTT, 300 K; native gel: 20 mM Tris pH 8.0, 10% glycerol, room temperature, 20 min.
For data set [6], the target named is T1, p50 RHR homodimer. Kind of data set: EMSA (native gel); 20 uM, 1:1; single band; NMR: 20 mM Tris pH 6.8, 150 mM NaCl, 2 mM DTT, 300 K; native gel: 20 mM Tris pH 8.0, 10% glycerol, room temperature, 20 min. A general note: A gel shift assay detects complexes by their altered migration in electrophoresis.

T1 sequence (P25799 39-363): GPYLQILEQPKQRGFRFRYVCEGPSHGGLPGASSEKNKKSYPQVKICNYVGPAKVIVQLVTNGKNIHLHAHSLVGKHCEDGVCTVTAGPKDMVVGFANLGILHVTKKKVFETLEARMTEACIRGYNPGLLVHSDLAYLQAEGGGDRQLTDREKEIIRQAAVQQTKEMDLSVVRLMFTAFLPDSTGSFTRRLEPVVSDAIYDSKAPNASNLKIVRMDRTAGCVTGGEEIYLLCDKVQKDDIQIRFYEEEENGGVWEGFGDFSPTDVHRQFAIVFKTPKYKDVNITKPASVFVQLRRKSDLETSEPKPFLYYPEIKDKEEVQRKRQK

B1: MHC H2 (dsDNA)
DNA 1: GCTGGGGATTCCCCAGC
DNA 2: GCTGGGGAATCCCCAGC
Consider B1, for which the binding result with p50 RHR homodimer [1] is on record as “binds”.

B2: Ig-κB (dsDNA)
DNA 1: GCTGGGACTTTCCAGC
DNA 2: GCTGGAAAGTCCCAGC
Regarding B2, the binding result with p50 RHR homodimer [2] is given as “binds”.

B3: κB proto (dsDNA)
DNA 1: GCTGGGAATTCCCAGC
DNA 2: GCTGGGAATTCCCAGC
As for B3, the binding result with p50 RHR homodimer [3] was “binds”.

B4: H2-κB (dsDNA)
DNA 1: GCTGGGAATCCCCAGC
DNA 2: GCTGGGGATTCCCAGC
For the molecule B4, the binding result with p50 RHR homodimer [2] is recorded as “binds”.

B5: MHC H2 M1 (dsDNA)
DNA 1: GCTGGGAATTTCCCAGC
DNA 2: GCTGGGAAATTCCCAGC
Consider B5, for which, in the data set with p50 RHR homodimer [4], the binding result is listed as “binds”.

B6: 4xG-10 (4G-10) (dsDNA)
DNA 1: GCTGGGGATCCCCAGC
DNA 2: GCTGGGGATCCCCAGC
Regarding B6, the binding result with p50 RHR homodimer [5] is on record as “binds”.

B7: MHC H2 M2 (dsDNA)
DNA 1: GCTGGGGATTTCCCAGC
DNA 2: GCTGGGAAATCCCCAGC
Take B7: the binding result with p50 RHR homodimer [6] was “binds”.

B8: IFN-κB (dsDNA)
DNA 1: GCTGGGAAATTCCAGC
DNA 2: GCTGGAATTTCCCAGC
Take B8: in the data set with p50 RHR homodimer [2], the binding result is recorded as “binds”.

These data come from PMC9262625, “Structural and dynamic studies of DNA recognition by NF-κB p50 RHR homodimer using methyl NMR spectroscopy”.
